The values below come from doi:10.1101/2025.04.07.647595, “Real-time tracking of mRNP complex assembly reveals various mechanisms that synergistically enhance translation repression”.

The target in the data set is T1, Sxl-dRBD5 (UniProt P19339 122-305).
T1 sequence: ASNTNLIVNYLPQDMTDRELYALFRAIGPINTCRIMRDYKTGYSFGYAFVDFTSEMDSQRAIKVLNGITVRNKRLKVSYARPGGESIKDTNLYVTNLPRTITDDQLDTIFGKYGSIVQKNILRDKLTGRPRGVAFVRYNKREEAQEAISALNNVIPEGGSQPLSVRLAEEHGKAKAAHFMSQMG
Description: NMR; BMRB 52948; C-terminal helix forms on RNA binding; FP: 10 mM Tris/HCl pH 7.5, 20 mM KCl, 25 mM NaCl, 0.005% NP-40; ITC: 50 mM Tris/HCl pH 7.5, 50 or 150 mM KCl, 298 K; smFRET: 50 mM salt at 21 C, or 150 mM at 29 C for Hrp48 assays. Particulars: protein: recombinant; tags: His6-Trx-TEV removed.

On to UUUUUUUUUU (ssRNA) [U10-mer RNA], for which the binding result is “binds”.
